Source: paper PMC10397247

Experiments:
Assay in all cases: two-hybrid library CCNG1;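 note: natural log of median RNA to DNA barcode read ratio; higher means stronger binding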
[1] = target: T1, 4H2692-bH
T1 chain: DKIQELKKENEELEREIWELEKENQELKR

[2] = target: T2, 4H492-bH
T2 chain: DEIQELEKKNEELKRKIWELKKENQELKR

[3] = target: T3, 4H2444-bH
T3 chain: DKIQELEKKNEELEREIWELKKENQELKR

[4] = target: T4, 4H754-bA
T4 chain: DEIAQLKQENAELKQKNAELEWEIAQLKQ

[5] = target: T5, 4H2931-bH
T5 chain: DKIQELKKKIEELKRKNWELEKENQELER

[6] = target: T6, 4H2585-bH
T6 chain: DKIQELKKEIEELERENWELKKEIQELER

[7] = target: T7, 4H56-bH
T7 chain: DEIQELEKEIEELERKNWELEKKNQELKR

[8] = target: T8, 4H4001-bN
T8 chain: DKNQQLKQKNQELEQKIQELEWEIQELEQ

[9] = target: T9, 4H2473-bH
T9 chain: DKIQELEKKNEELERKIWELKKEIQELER

[10] = target: T10, 4H2859-bH
T10 chain: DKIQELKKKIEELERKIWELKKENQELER

[11] = target: T11, 4H2438-bH
T11 chain: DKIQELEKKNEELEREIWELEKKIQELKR

[12] = target: T12, 4H348-bH
T12 chain: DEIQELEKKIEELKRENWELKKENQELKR

[13] = target: T13, 4H796-bH
T13 chain: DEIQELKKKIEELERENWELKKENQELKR

[14] = target: T14, 4H3277-bH
T14 chain: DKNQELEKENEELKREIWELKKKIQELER

[15] = target: T15, 4H741-bH
T15 chain: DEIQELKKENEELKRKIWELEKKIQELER

[16] = target: T16, 4H2503-bH
T16 chain: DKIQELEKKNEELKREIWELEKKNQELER

[17] = target: T17, 4H932-bH
T17 chain: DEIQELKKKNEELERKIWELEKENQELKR

[18] = target: T18, 4H2518-bH
T18 chain: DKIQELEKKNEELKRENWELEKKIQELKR

[19] = target: T19, 4H40-bH
T19 chain: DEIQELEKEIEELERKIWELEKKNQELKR

[20] = target: T20, 4H2588-bH
T20 chain: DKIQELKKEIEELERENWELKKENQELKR

[21] = target: T21, 4H2253-bH
T21 chain: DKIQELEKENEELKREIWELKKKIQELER

[22] = target: T22, 4H235-bH
T22 chain: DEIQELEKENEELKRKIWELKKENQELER

[23] = target: T23, 4H2760-bH
T23 chain: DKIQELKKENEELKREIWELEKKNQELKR

[24] = target: T24, 4H264-bH
T24 chain: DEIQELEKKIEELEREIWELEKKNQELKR

[25] = target: T25, 4H949-bH
T25 chain: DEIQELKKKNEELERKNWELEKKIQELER

[26] = target: T26, 4H3297-bH
T26 chain: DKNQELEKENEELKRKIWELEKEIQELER

[27] = target: T27, 4H2717-bH
T27 chain: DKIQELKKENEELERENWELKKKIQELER

[28] = target: T28, 4H730-bH
T28 chain: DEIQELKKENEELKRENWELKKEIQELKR

[29] = target: T29, 4H2915-bH
T29 chain: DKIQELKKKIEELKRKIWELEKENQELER

[30] = target: T30, 4H2143-bH
T30 chain: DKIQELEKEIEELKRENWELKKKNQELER

[31] = target: T31, 4H319-bH
T31 chain: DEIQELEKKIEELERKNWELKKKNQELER

[32] = target: T32, 4H2223-bH
T32 chain: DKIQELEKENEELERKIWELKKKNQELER

[33] = target: T33, 4H3041-bH
T33 chain: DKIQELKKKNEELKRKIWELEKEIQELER

[34] = target: T34, 4H2162-bH
T34 chain: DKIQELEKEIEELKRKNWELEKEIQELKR

[35] = target: T35, 4H477-bH
T35 chain: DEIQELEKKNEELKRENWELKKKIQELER

[36] = target: T36, 4H349-bH
T36 chain: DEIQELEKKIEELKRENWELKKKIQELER

[37] = target: T37, 4H2233-bH
T37 chain: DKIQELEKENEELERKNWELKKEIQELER

[38] = target: T38, 4H2839-bH
T38 chain: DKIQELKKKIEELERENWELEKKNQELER

[39] = target: T39, 4H3364-bH
T39 chain: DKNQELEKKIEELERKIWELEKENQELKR

[40] = target: T40, 4H3057-bH
T40 chain: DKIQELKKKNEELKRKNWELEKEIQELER

[41] = target: T41, 4H3381-bH
T41 chain: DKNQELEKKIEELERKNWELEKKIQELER

B1: 4H2143-bH (peptide)
chain: DKIQELEKEIEELKRENWELKKKNQELER
[1]
  interaction score: -0.348
[2]
  interaction score: -0.638
[3]
  interaction score: -0.824
[4]
  interaction score: -0.871
[5]
  interaction score: 0.0986
[6]
  interaction score: -1.12
[7]
  interaction score: 0.127
[8]
  interaction score: -1.45
[9]
  interaction score: -0.279
[10]
  interaction score: -0.954
[11]
  interaction score: -0.916
[12]
  interaction score: 0.059
[13]
  interaction score: -1.45
[14]
  interaction score: -0.719
[15]
  interaction score: 0.515
[16]
  interaction score: -1.13
[17]
  interaction score: -0.164
[18]
  interaction score: 0.15
[19]
  interaction score: 1
[20]
  interaction score: -0.874
[21]
  interaction score: -1.13
[22]
  interaction score: -0.618
[23]
  interaction score: -0.0706
[24]
  interaction score: 0.605
[25]
  interaction score: -0.954
[26]
  interaction score: -0.15
[27]
  interaction score: -0.549
[28]
  interaction score: -0.835
[29]
  interaction score: -0.577
[30]
  interaction score: 0.693
[31]
  interaction score: -1.46
[32]
  interaction score: -0.434
[33]
  interaction score: -0.203
[34]
  interaction score: 0.12
[35]
  interaction score: -0.0383
[36]
  interaction score: -0.148
[37]
  interaction score: 0.334
[38]
  interaction score: 1.24
[39]
  interaction score: 0.347
[40]
  interaction score: 0.0434
[41]
  interaction score: 0.106
